{"source": "patent US20150011431A1", "about": "(Scripps Research, published 2015)", "target": "T1, CXCR1 (UniProt P25024 1-350, limits assumed)", "T1 construct": "whole, on cells; DiscoveRx cells engineered with a luminescent reporter enzyme for beta-arrestin recruitment; also called CXCR1-U2OS; U2OS-CXCR1", "T1 sequence (looked up)": "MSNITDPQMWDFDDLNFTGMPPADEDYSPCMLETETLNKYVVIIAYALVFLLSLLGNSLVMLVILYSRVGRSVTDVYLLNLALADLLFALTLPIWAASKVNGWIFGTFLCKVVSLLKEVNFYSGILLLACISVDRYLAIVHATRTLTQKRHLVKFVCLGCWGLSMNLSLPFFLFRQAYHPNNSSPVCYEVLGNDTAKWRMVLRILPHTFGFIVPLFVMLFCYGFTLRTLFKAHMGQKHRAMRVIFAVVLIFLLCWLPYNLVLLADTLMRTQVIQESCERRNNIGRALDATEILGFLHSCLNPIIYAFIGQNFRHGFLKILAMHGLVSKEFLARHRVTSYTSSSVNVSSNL", "experiment": "flow cytometry with 2 ug/ml heparin sulfate, IgG normalized to 10 nM; CXCR1-U2OS against parental U2OS cells", "description": "Cell culture supernatants were then tested for binding to cells by flow cytometry. The adherent U2OS or CXCR1-U2OS cells were dissociated with Accutase (Innovative Cell Technologies, Inc., San Diego, Calif.), neutralized with an equal volume of media containing 10% serum, centrifuged at 1000 g, and resuspended in PBS with 2% BSA. Next, cells were dispensed into microtiter plates to achieve between 30,000 to 300,000 cells per well, centrifuged again, and resuspended in cell culture supernatant containing expressed IgG, or a dilution of IgG-containing cell culture supernatant. A fluorescent-conjugated anti-Human Fc antibody was used to detect binding of the expressed antibody to cells.\nIn an exemplary method, variants of V1-51 were made by overlap PCR and subcloned into pFuse vector for expression as described in Example 4. […] These V1-51 variants were paired with heavy chains encoding VH4-34+CDR3-IL8 (SEQ ID NO: 430), VH4-34+CDR3-IL8_CDR1 Cow (SEQ ID NO: 432), VH4-34+CDR3-IL8_CDR2 Cow (SEQ ID NO: 433), or VH4-34+CDR3-IL8_CDR1 Cow CDR2 Cow, (SEQ ID NO: 436). Transfections and ELISA were carried out as described above, and flow cytometry was used to evaluate CXCR1 binding specificity as previously described, with the modification that cells were resuspended in 2% BSA in PBS plus 2 ug/ml Heparin sulfate, and IgGs were normalized to 10 nM during incubation on cells."}
{"binder": "IgG with VH4-34+CDR3-IL8_CDR1 Cow CDR2 Cow and light chain V1-51 CDR1 I29V, N32G (antibody, IgG, human IgG1 CH1-CH2-CH3; normalized to 10 nM; also called VH4-34 CDR3-IL8 CDR1-Cow & CDR2-Cow / V1-51 CDR1 I29V, N32G) heavy: not shown light: QSVLTQPPSVSAAPGQKVTISCSGSSSNVGNGYVSWYQQLPGTAPKLLIYDNNKRPSGIPDRFSGSKSGTSATLGITGLQTGDEADYYCASAEDSSSNAVFGSGTTLTVLGQPKAAPSVTLFPPSSEELQANKATLVCLISDFYPGAVTVAWKADSSPVKAGVETTTPSKQSNNKYAASSYLSLTPEQWKSHRSYSCQVTHEGSTVEKTVAPTECS", "values": [{"measurement": "CXCR1 specificity", "value": 11.8}]}
{"binder": "IgG with VH4-34+CDR3-IL8_CDR1 Cow CDR2 Cow and light chain V1-51 CDR2 DNN to GDT (antibody, IgG, human IgG1 CH1-CH2-CH3; normalized to 10 nM; also called VH4-34 CDR3-IL8 CDR1-Cow & CDR2-Cow / V1-51 CDR2 DNN to GDT) heavy: not shown light: QSVLTQPPSVSAAPGQKVTISCSGSSSNIGNNYVSWYQQLPGTAPKLLIYGDTKRPSGIPDRFSGSKSGTSATLGITGLQTGDEADYYCASAEDSSSNAVFGSGTTLTVLGQPKAAPSVTLFPPSSEELQANKATLVCLISDFYPGAVTVAWKADSSPVKAGVETTTPSKQSNNKYAASSYLSLTPEQWKSHRSYSCQVTHEGSTVEKTVAPTECS", "values": [{"measurement": "CXCR1 specificity", "value": 16.7}]}
{"binder": "IgG with VH4-34+CDR3-IL8_CDR1 Cow CDR2 Cow and light chain V1-51 CDR2 DNNKRP to GDTSRA (antibody, IgG, human IgG1 CH1-CH2-CH3; normalized to 10 nM) heavy: not shown light: QSVLTQPPSVSAAPGQKVTISCSGSSSNIGNNYVSWYQQLPGTAPKLLIYGDTSRASGIPDRFSGSKSGTSATLGITGLQTGDEADYYCASAEDSSSNAVFGSGTTLTVLGQPKAAPSVTLFPPSSEELQANKATLVCLISDFYPGAVTVAWKADSSPVKAGVETTTPSKQSNNKYAASSYLSLTPEQWKSHRSYSCQVTHEGSTVEKTVAPTECS", "values": [{"measurement": "CXCR1 specificity", "value": 6.9}]}
{"binder": "IgG with VH4-34+CDR3-IL8_CDR1 Cow CDR2 Cow and light chain V1-51 S2A, T5N, P8S, A12G, A13S, P14L (antibody, IgG, human IgG1 CH1-CH2-CH3; normalized to 10 nM; also called VH4-34 CDR3-IL8 CDR1-Cow & CDR2-Cow / V1-51 S2A, T5N, P8S, A12G, A13S, P14L) heavy: not shown light: QAVLNQPSSVSGSLGQKVTISCSGSSSNIGNNYVSWYQQLPGTAPKLLIYDNNKRPSGIPDRFSGSKSGTSATLGITGLQTGDEADYYCASAEDSSSNAVFGSGTTLTVLGQPKAAPSVTLFPPSSEELQANKATLVCLISDFYPGAVTVAWKADSSPVKAGVETTTPSKQSNNKYAASSYLSLTPEQWKSHRSYSCQVTHEGSTVEKTVAPTECS", "values": [{"measurement": "CXCR1 specificity", "value": 12.2}]}
{"binder": "IgG with VH4-34+CDR3-IL8_CDR1 Cow and light chain V1-51 CDR1 I29V, N32G (antibody, IgG, human IgG1 CH1-CH2-CH3; normalized to 10 nM; also called VH4-34 CDR3-IL8 CDR1-Cow / V1-51 CDR1 I29V, N32G) heavy: not shown light: QSVLTQPPSVSAAPGQKVTISCSGSSSNVGNGYVSWYQQLPGTAPKLLIYDNNKRPSGIPDRFSGSKSGTSATLGITGLQTGDEADYYCASAEDSSSNAVFGSGTTLTVLGQPKAAPSVTLFPPSSEELQANKATLVCLISDFYPGAVTVAWKADSSPVKAGVETTTPSKQSNNKYAASSYLSLTPEQWKSHRSYSCQVTHEGSTVEKTVAPTECS", "values": [{"measurement": "CXCR1 specificity", "value": 8.9}]}
{"binder": "IgG with VH4-34+CDR3-IL8_CDR1 Cow and light chain V1-51 CDR2 DNNKRP to GDTSRA (antibody, IgG, human IgG1 CH1-CH2-CH3; normalized to 10 nM; Only 'DNN (amino acids 51-53)' is printed; positions 54 and 56 are counted on from it) heavy: not shown light: QSVLTQPPSVSAAPGQKVTISCSGSSSNIGNNYVSWYQQLPGTAPKLLIYGDTSRASGIPDRFSGSKSGTSATLGITGLQTGDEADYYCASAEDSSSNAVFGSGTTLTVLGQPKAAPSVTLFPPSSEELQANKATLVCLISDFYPGAVTVAWKADSSPVKAGVETTTPSKQSNNKYAASSYLSLTPEQWKSHRSYSCQVTHEGSTVEKTVAPTECS", "values": [{"measurement": "CXCR1 specificity", "value": 8}]}
{"binder": "IgG with VH4-34+CDR3-IL8_CDR1 Cow and light chain V1-51 S2A, T5N, P8S, A12G, A13S, P14L & DNN to GDT (antibody, IgG, human IgG1 CH1-CH2-CH3; normalized to 10 nM; also called VH4-34 CDR3-IL8 CDR1-Cow / V1-51 S2A, T5N, P8S, A12G, A13S, P14L & DNN to GDT) heavy: not shown light: QAVLNQPSSVSGSLGQKVTISCSGSSSNIGNNYVSWYQQLPGTAPKLLIYGDTKRPSGIPDRFSGSKSGTSATLGITGLQTGDEADYYCASAEDSSSNAVFGSGTTLTVLGQPKAAPSVTLFPPSSEELQANKATLVCLISDFYPGAVTVAWKADSSPVKAGVETTTPSKQSNNKYAASSYLSLTPEQWKSHRSYSCQVTHEGSTVEKTVAPTECS", "values": [{"measurement": "CXCR1 specificity", "value": 6.8}]}
